From the supplement of paper PMC10567573

B1: TRAF3IP2 (parent)
chain: FMEKRNQWLVSQLSAASPDTGHDS

Variants of: B1
Test: protein stability index of a GFP-peptide fusion (GPS, HEK-293T) (PSI 1-6); higher = more stable
Settings: c terminus: a fixed tail appended
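Also: lentivirally expressed fusions sorted by FACS into six bins by GFP to DsRed ratio, PSI derived from sequencing read proportions per bin multiplied by bin number.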

Variant	protein stability index
FMEKRNQWLVSQLSAISPDTGHDS	2.26
FMEKRNQWLVSQLSAKSPDTGHDS	2.09
FMEKRNQWLVSQLSALSPDTGHDS	1.38
FMEKRNQWLVSQLSAMSPDTGHDS	2.06
FMEKRNQWLVSQLSANSPDTGHDS	2.9
FMEKRNQWLVSQLSAPSPDTGHDS	2.14
FMEKRNQWLVSQLSAQSPDTGHDS	2.6
FMEKRNQWLVSQLSARSPDTGHDS	1.54
FMEKRNQWLVSQLSASSPDTGHDS	2.39
FMEKRNQWLVSQLSATSPDTGHDS	1.96
FMEKRNQWLVSQLSAVSPDTGHDS	2.26
FMEKRNQWLVSQLSAYSPDTGHDS	1.87
FMEKRNQWLVSQLSAACPDTGHDS	2.98
FMEKRNQWLVSQLSAADPDTGHDS	2.94
FMEKRNQWLVSQLSAAEPDTGHDS	2.88
FMEKRNQWLVSQLSAAFPDTGHDS	1.88
FMEKRNQWLVSQLSAAGPDTGHDS	2.47
FMEKRNQWLVSQLSAAHPDTGHDS	2.73
FMEKRNQWLVSQLSAAIPDTGHDS	2.19
FMEKRNQWLVSQLSAAKPDTGHDS	2.41
FMEKRNQWLVSQLSAALPDTGHDS	2.54
FMEKRNQWLVSQLSAAMPDTGHDS	2.1
FMEKRNQWLVSQLSAANPDTGHDS	2.35
FMEKRNQWLVSQLSAAPPDTGHDS	2.66

Variant	protein stability index
FMEKRNQWLVSQLSAAQPDTGHDS	2.63
FMEKRNQWLVSQLSAARPDTGHDS	2.46
FMEKRNQWLVSQLSAATPDTGHDS	3.03
FMEKRNQWLVSQLSAAVPDTGHDS	1.88
FMEKRNQWLVSQLSAAWPDTGHDS	1.57
FMEKRNQWLVSQLSAAYPDTGHDS	1.71
FMEKRNQWLVSQLSAASADTGHDS	2.35
FMEKRNQWLVSQLSAASCDTGHDS	2.22
FMEKRNQWLVSQLSAASDDTGHDS	2.88
FMEKRNQWLVSQLSAASEDTGHDS	2.62
FMEKRNQWLVSQLSAASFDTGHDS	1.9
FMEKRNQWLVSQLSAASGDTGHDS	2.38
FMEKRNQWLVSQLSAASHDTGHDS	2.08
FMEKRNQWLVSQLSAASIDTGHDS	2.69
FMEKRNQWLVSQLSAASKDTGHDS	2.42
FMEKRNQWLVSQLSAASLDTGHDS	1.93
FMEKRNQWLVSQLSAASMDTGHDS	2.22
FMEKRNQWLVSQLSAASNDTGHDS	2.5
FMEKRNQWLVSQLSAASQDTGHDS	2.09
FMEKRNQWLVSQLSAASRDTGHDS	2.77
FMEKRNQWLVSQLSAASSDTGHDS	1.49
FMEKRNQWLVSQLSAASTDTGHDS	2.94
FMEKRNQWLVSQLSAASVDTGHDS	2.54
FMEKRNQWLVSQLSAASWDTGHDS	1.67

Variant	protein stability index
FMEKRNQWLVSQLSAASYDTGHDS	2.7
FMEKRNQWLVSQLSAASPATGHDS	3.69
FMEKRNQWLVSQLSAASPCTGHDS	2.45
FMEKRNQWLVSQLSAASPETGHDS	1.91
FMEKRNQWLVSQLSAASPFTGHDS	1.8
FMEKRNQWLVSQLSAASPGTGHDS	1.7
FMEKRNQWLVSQLSAASPHTGHDS	2.2
FMEKRNQWLVSQLSAASPITGHDS	2.52
FMEKRNQWLVSQLSAASPKTGHDS	2.28
FMEKRNQWLVSQLSAASPLTGHDS	1.92
FMEKRNQWLVSQLSAASPMTGHDS	2.57
FMEKRNQWLVSQLSAASPNTGHDS	2.4
FMEKRNQWLVSQLSAASPPTGHDS	2.33
FMEKRNQWLVSQLSAASPRTGHDS	2.9
FMEKRNQWLVSQLSAASPSTGHDS	2.43
FMEKRNQWLVSQLSAASPTTGHDS	3.02
FMEKRNQWLVSQLSAASPVTGHDS	1.92
FMEKRNQWLVSQLSAASPWTGHDS	1.52
FMEKRNQWLVSQLSAASPYTGHDS	1.41
FMEKRNQWLVSQLSAASPDAGHDS	2.32
FMEKRNQWLVSQLSAASPDCGHDS	2.65
FMEKRNQWLVSQLSAASPDDGHDS	2.94
FMEKRNQWLVSQLSAASPDEGHDS	1.75
FMEKRNQWLVSQLSAASPDFGHDS	1.97

Variant	protein stability index
FMEKRNQWLVSQLSAASPDHGHDS	2.38
FMEKRNQWLVSQLSAASPDIGHDS	1.74
FMEKRNQWLVSQLSAASPDKGHDS	2.47
FMEKRNQWLVSQLSAASPDLGHDS	1.96
FMEKRNQWLVSQLSAASPDMGHDS	3.13
FMEKRNQWLVSQLSAASPDNGHDS	2.1
FMEKRNQWLVSQLSAASPDPGHDS	1.99
FMEKRNQWLVSQLSAASPDQGHDS	2.51
FMEKRNQWLVSQLSAASPDRGHDS	1.89
FMEKRNQWLVSQLSAASPDSGHDS	3.24
FMEKRNQWLVSQLSAASPDVGHDS	2.75
FMEKRNQWLVSQLSAASPDWGHDS	1.02
FMEKRNQWLVSQLSAASPDYGHDS	2.64
FMEKRNQWLVSQLSAASPDTAHDS	2.72
FMEKRNQWLVSQLSAASPDTCHDS	1.8
FMEKRNQWLVSQLSAASPDTDHDS	2.47
FMEKRNQWLVSQLSAASPDTEHDS	3.22
FMEKRNQWLVSQLSAASPDTFHDS	1.58
FMEKRNQWLVSQLSAASPDTHHDS	2.2
FMEKRNQWLVSQLSAASPDTIHDS	1.8
FMEKRNQWLVSQLSAASPDTKHDS	2.44
FMEKRNQWLVSQLSAASPDTLHDS	1.78
